Experimental data from paper PMC6683012.

B1: QSK1-nYFP [Arabidopsis] / SIRK1-cYFP [Arabidopsis] (parent)
chain 1: SDLESDRRALLAVRNSVRGRPLLWNMSASSPCNWHGVHCDAGRVTALRLPGSGLFGSLPIGGIGNLTQLKTLSLRFNSLSGPIPSDFSNLVLLRYLYLQGNAFSGEIPSLLFTLPSIIRINLGENKFSGRIPDNVNSATRLVTLYLERNQLSGPIPEITLPLQQFNVSSNQLNGSIPSSLSSWPRTAFEGNTLCGKPLDTCEAESPNGGDAGGPNTPPEKKDSDKLSAGAIVGIVIGCVVGLLLLLLILFCLCRKRKKEENVPSRNVEAPVAAATSSAAIPKETVVVVPPAKATGSESGAVNKDLTFFVKSFGEFDLDGLLKASAEVLGKGTVGSSYKASFEHGLVVAVKRLRDVVVPEKEFRERLHVLGSMSHANLVTLIAYYFSRDEKLLVFEYMSKGSLSAILHGNKGNGRTPLNWETRAGIALGAARAISYLHSRDGTTSHGNIKSSNILLSDSYEAKVSDYGLAPIISSTSAPNRIDGYRAPEITDARKISQKADVYSFGVLILELLTGKSPTHQQLNEEGVDLPRWVQSVTEQQTPSDVLDPELTRYQPEGNENIIRLLKIGMSCTAQFPDSRPSMAEVTRLIEEVSHSSGSPNPVSD
chain 2: VTETELRSLLEFRKGIRDETSHQRISWSDTSSLTDPSTCPNDWPGISCDPETGSIIAINLDRRGLSGELKFSTLSGLTRLRNLSLSGNSFSGRVVPSLGGISSLQHLDLSDNGFYGPIPGRISELWSLNHLNLSSNKFEGGFPSGFRNLQQLRSLDLHKNEIWGDVGEIFTELKNVEFVDLSCNRFNGGLSLPMENISSISNTLRHLNLSHNALNGKFFSEESIGSFKNLEIVDLENNQINGELPHFGSQPSLRILKLARNELFGLVPQELLQSSIPLLELDLSRNGFTGSISEINSSTLTMLNLSSNGLSGDLPSSFKSCSVIDLSGNTFSGDVSVVQKWEATPDVLDLSSNNLSGSLPNFTSAFSRLSVLSIRNNSVSGSLPSLWGDSQFSVIDLSSNKFSGFIPVSFFTFASLRSLNLSRNNLEGPIPFRGSRASELLVLNSYPQMELLDLSTNSLTGMLPGDIGTMEKIKVLNLANNKLSGELPSDLNKLSGLLFLDLSNNTFKGQIPNKLPSQMVGFNVSYNDLSGIIPEDLRSYPPSSFYPGNSKLSLPGRIPADSSGDLSLPGKKHHSKLSIRIAIIVASVGAAIMILFVLFAYHRTQLKDFHGRNRFTDQATTRDTKFGRSSRPSLFNFSSNVEQQSSSLSFSNDHLLTANSRSLSGIPGCEAEISEQGAPATSAPTNLLDDYPAASGRKSSSGGSPLSSSPRFSDQPVMLDVYSPDRLAGELFFLDVSLKLTAEELSRAPAEVLGRSSHGTLYKATLDNGHMLTVKWLRVGLVRHKKDFAREAKKIGSLKHPNIVPLRAYYWGPREQERLLLSDYLRGESLAMHLYETTPRRYSPMSFSQRLKVAVEVAQCLLYLHDRAMPHGNLKPTNIILSSPDNTVRITDYCVHRLMTPSGVAEQILNMSALGYSAPELSSASKPIPTLKSDVYAFGVILMELLTRRSAGDIISGQTGAVDLTDWVRLCDQEGRRMDCIDRDIAGGEEFSKGMEDALAVAIRCILSVNERPNIRQVLDHLTSISA
B2: SIRK1-cYFP [Arabidopsis] / QSK2-nYFP [Arabidopsis] (parent)
chain 1: B1 chain 2
chain 2: DLEADRRALIALRDGVHGRPLLWNLTAPPCTWGGVQCESGRVTALRLPGVGLSGPLPIAIGNLTKLETLSFRFNALNGPLPPDFANLTLLRYLYLQGNAFSGEIPSFLFTLPNIIRINLAQNNFLGRIPDNVNSATRLATLYLQDNQLTGPIPEIKIKLQQFNVSSNQLNGSIPDPLSGMPKTAFLGNLLCGKPLDACPVNGTGNGTVTPGGKGKSDKLSAGAIVGIVIGCFVLLLVLFLIVFCLCRKKKKEQVVQSRSIEAAPVPTSSAAVAKESNGPPAVVANGASENGVSKNPAAVSKDLTFFVKSFGEFDLDGLLKASAEVLGKGTFGSSYKASFDHGLVVAVKRLRDVVVPEKEFREKLQVLGSISHANLVTLIAYYFSRDEKLVVFEYMSRGSLSALLHGNKGSGRSPLNWETRANIALGAARAISYLHSRDATTSHGNIKSSNILLSESFEAKVSDYCLAPMISPTSTPNRIDGYRAPEVTDARKISQKADVYSFGVLILELLTGKSPTHQQLHEEGVDLPRWVSSITEQQSPSDVFDPELTRYQSDSNENMIRLLNIGISCTTQYPDSRPTMPEVTRLIEEVSRSPASPGPLSD
B3: SIRK1-cYFP [Arabidopsis] / QSK1-nYFP [Arabidopsis] (parent)
chain 1: B1 chain 2
chain 2: B1 chain 1

Variants of: B1
Assay: ratiometric bimolecular fluorescence complementation (rBiFC)
Details: with SIRK1-cYFP [Arabidopsis]; n=14 cells (parent n=10); value is box-plot median; parent: 0.9; read off a plot

Row | response | Variant
1 | 1 | chain 1 S598A S603A

Same assay, conditions: with SIRK1-cYFP [Arabidopsis]; n=12 cells (parent n=10); value is box-plot median; parent: 0.9; read off a plot

Row | response | Variant
2 | 1.8 | chain 1 S598D S603D

Variants of: B2
Assay: as above
Details: with QSK2-nYFP [Arabidopsis]; n=35 cells (parent n=32); value is box-plot median; parent: 1.6; read off a plot

Row | response | Variant
3 | 1.7 | chain 1 S723D

Same assay, conditions: with QSK2-nYFP [Arabidopsis]; n=34 cells (parent n=32); value is box-plot median; parent: 1.6; read off a plot

Row | response | Variant
4 | 0.15 | chain 1 S723A

Variants of: B3
Assay: as above
Details: with QSK1-nYFP [Arabidopsis]; n=10 cells (parent n=10); value is box-plot median; parent: 0.9; read off a plot

Row | response | Variant
5 | 1.3 | chain 1 S723D
6 | 0.18 | chain 1 S723A
